Assay results: patent publication US20190194347A1, “ANTIBODIES FOR EPIDERMAL GROWTH FACTOR RECEPTOR 3 (HER3)” (NOVARTIS AG, priority 2010, published 2019)

Legend:
[1] = target: endogenous human HER3 on human cancer cells (SK-Br-3, MCF7, BT-474) (human, UniProt P21860 20-1342); assay: cell-based or functional assay
[2] = target: T1, HER3 K267A (CD33-[Human HER3, residues 20-640, K267A]-TAG) (human, UniProt P21860 20-640); assay: ELISA titration on coated recombinant mutant HER3
T1 construct: also called HER3 K267A-Tag; not shown: C-terminal TAG (e.g., FLAG TAG)

[3] = target: T2, HER3 L268A (CD33-[Human HER3, residues 20-640, L268A]-TAG) (human, UniProt P21860 20-640); assay: ELISA titration on coated recombinant mutant HER3
T2 construct: also called HER3 L268A-Tag; not shown: C-terminal TAG (e.g., FLAG TAG)

B1: MOR09823 (antibody, V domains shown)
VH: QVQLVESGGGLVQPGGSLRLSCAASGFTFSSYAMSWVRQAPGKGLEWVSVTGAVGRTYYPDSVKGRFTISRDNSKNTLYLQMNSLRAEDTAVYYCARWGDEGFDIWGQGTLVTVSS
VL: DIQMTQSPSSLSASVGDRVTITCRASQGISNWLAWYQQKPGKAPKLLIYGASSLQSGVPSRFSGSGSGTDFTLTISSLQPEDFAVYYCQQYSSFPTTFGQGTKVEIKR
% inhibition of proliferation, BT-474, 10 µg/ml IgG [1]: 39.8% | % inhibition of proliferation, MCF7 (neuregulin stimulated), 10 µg/ml IgG [1]: 82% | % inhibition of proliferation, SK-Br-3, 10 µg/ml IgG [1]: 39%

B2: MOR09825 (antibody, human IgG1, kappa, V domains shown)
VH: QVQLVESGGGLVQPGGSLRLSCAASGFTFSSYAMSWVRQAPGKGLEWVSAINSQGKSTYYADSVKGRFTISRDNSKNTLYLQMNSLRAEDTAVYYCARWGDEGFDIWGQGTLVTVSS
VL: DIQMTQSPSSLSASVGDRVTITCRASQGISNWLAWYQQKPGKAPKLLIYGASSLQSGVPSRFSGSGSGTDFTLTISSLQPEDFAVYYCQQYSSFPTTFGQGTKVEIKR
% inhibition of proliferation, BT-474, 10 µg/ml IgG [1]: 37.2% | % inhibition of proliferation, MCF7 (neuregulin stimulated), 10 µg/ml IgG [1]: 63% | % inhibition of proliferation, SK-Br-3, 10 µg/ml IgG [1]: 41%

B3: MOR10702 (antibody, human IgG1, kappa, V domains shown)
VH: EVQLLESGGGLVQPGGSLRLSCAASGFTFSSYAMSWVRQAPGKGLEWVSVISAWGHVKYYADSVKGRFTISRDNSKNTLYLQMNSLRAEDTAVYYCARWGDEGFDIWGQGTLVTVSS
VL: DIQMTQSPSSLSASVGDRVTITCRASQGISNWLAWYQQKPGKAPKLLIYGASSLQSGVPSRFSGSGSGTDFTLTISSLQPEDFATYYCQQYSSFPTTFGQGTKVEIKR
% inhibition of proliferation, BT-474, 10 µg/ml IgG [1]: 43.8%

B4: MOR10701 (antibody, human IgG1, kappa, V domains shown)
VH: EVQLLESGGGLVQPGGSLRLSCAASGFTFSSYAMSWVRQAPGKGLEWVSVTGAVGRSTYYPDSVKGRFTISRDNSKNTLYLQMNSLRAEDTAVYYCARWGDEGFDIWGQGTLVTVSS
VL: DIQMTQSPSSLSASVGDRVTITCRASQGISNWLAWYQQKPGKAPKLLIYGASSLQSGVPSRFSGSGSGTDFTLTISSLQPEDFATYYCQQYSSFPTTFGQGTKVEIKR
% inhibition of proliferation, BT-474, 10 µg/ml IgG [1]: 43.6%

B5: MOR09824 (antibody, human IgG1, kappa, V domains shown)
VH: QVQLVESGGGLVQPGGSLRLSCAASGFTFSSYAMSWVRQAPGKGLEWVSVISAWGHVKYYADSVKGRFTISRDNSKNTLYLQMNSLRAEDTAVYYCARWGDEGFDIWGQGTLVTVSS
VL: DIQMTQSPSSLSASVGDRVTITCRASQGISNWLAWYQQKPGKAPKLLIYGASSLQSGVPSRFSGSGSGTDFTLTISSLQPEDFAVYYCQQYSSFPTTFGQGTKVEIKR
% inhibition of proliferation, BT-474, 10 µg/ml IgG [1]: 36.8% | % inhibition of proliferation, MCF7 (neuregulin stimulated), 10 µg/ml IgG [1]: 82% | % inhibition of proliferation, SK-Br-3, 10 µg/ml IgG [1]: 33%

B6: MOR10703 (antibody, human IgG1, kappa, V domains shown)
VH: EVQLLESGGGLVQPGGSLRLSCAASGFTFSSYAMSWVRQAPGKGLEWVSAINSQGKSTYYADSVKGRFTISRDNSKNTLYLQMNSLRAEDTAVYYCARWGDEGFDIWGQGTLVTVSS
VL: DIQMTQSPSSLSASVGDRVTITCRASQGISNWLAWYQQKPGKAPKLLIYGASSLQSGVPSRFSGSGSGTDFTLTISSLQPEDFATYYCQQYSSFPTTFGQGTKVEIKR
% inhibition of proliferation, BT-474, 10 µg/ml IgG [1]: 41.6% | % inhibition of proliferation, MCF7 (neuregulin stimulated), 10 µg/ml IgG [1]: 81% | % inhibition of proliferation, SK-Br-3, 10 µg/ml IgG [1]: 35% | binding result [2]: no binding (tested: up to 10 µg/mL antibody (Example 7)) | binding result [3]: no binding (tested: up to 10 µg/mL antibody (Example 7))

B7: MOR09974 (antibody, human IgG1, kappa, V domains shown)
VH: QVQLVESGGGLVQPGGSLRLSCAASGFTFSSYAMSWVRQAPGKGLEWVSVINPSGNFTNYADSVKGRFTISRDNSKNTLYLQMNSLRAEDTAVYYCARWGDEGFDIWGQGTLVTVSS
VL: DIQMTQSPSSLSASVGDRVTITCRASQGISNWLAWYQQKPGKAPKLLIYGASSLQSGVPSRFSGSGSGTDFTLTISSLQPEDFAVYYCQQYSSFPTTFGQGTKVEIKR
% inhibition of proliferation, MCF7 (neuregulin stimulated), 10 µg/ml IgG [1]: 20% | % inhibition of proliferation, SK-Br-3, 10 µg/ml IgG [1]: 35%
